Experimental data as given in PMC5630700 (Frontiers in Immunology, 2017).

B1: sdAb A–Gaussia luciferase fusion (glucibody, pecan35) (VHH)
VHH: EVKLQESGGGLVQAGESLRLSCAVPPEVFDIRTVAWYRQVPLGKGRELLSSITPWNKTTYEDSVKDRFTISRDNAKYTVYLQMNDLKPEDTAVYYCAQGWGIASMRYWGQGTQVTVSS
notes: also called sdAb A glucibody; sdAb A–gluc; source: E. coli Tuner + pRARE, periplasmic (pecan35), purified
B2: sdAb B–Gaussia luciferase fusion (glucibody, pecan35) (VHH)
VHH: KVQLQESGGGLVQAGGSLRLSCAASGGTFSINTLGWYRRAPGKEREFVARISSGGITRYADSVKGRFTISRDNGKNTVYLDMNSLKPEDTAVYYCMYRNWGGGLDVYWGQGTQVTVSS
notes: also called sdAb B glucibody; sdAb B–gluc; source: E. coli Tuner + pRARE, periplasmic (pecan35), purified
B3: sdAb C–Gaussia luciferase fusion (glucibody, pecan35) (VHH)
VHH: KVQLQESGGGLVQVGGSLRLSCKASGFTFRSSAMGWYRRAPGKQRELVASLTTTGTADYGDFVKGRFTISRDNAENTVDLHMNSLKPEDTAVYYCHEDPYGMESLRYWGQGTQVTVSS
notes: also called sdAb C glucibody; sdAb C–gluc; source: E. coli Tuner + pRARE, periplasmic (pecan35), purified
B4: sdAb A as a BAP fusion (from pecan126) (VHH)
VHH: B1 VHH
notes: also called wild-type sdAb A; source: E. coli HBV88 (pecan126), purified
B5: sdAb B as a BAP fusion (from pecan126) (VHH)
VHH: B2 VHH
notes: also called wild-type sdAb B; source: E. coli HBV88 (pecan126), purified
B6: sdAb C as a BAP fusion (from pecan126) (VHH)
VHH: B3 VHH
notes: also called wild-type sdAb C; source: E. coli HBV88 (pecan126), purified

Columns and labels:
mbp-NP632 fusion protein = target: T1, mbp-NP632 fusion protein (Marburg virus Musoke-80, UniProt P27588); assay: ELISA; conditions: both partners purified
T1 construct: source: E. coli (pE), purified

[1] = target: T2, nluc-NP632 fusion protein (Marburg virus Musoke-80, UniProt P27588); assay: ELISA; conditions: both partners purified
T2 construct: source: E. coli, cytosolic (pENCO derivative), purified

T1 sequence (P27588 632-695): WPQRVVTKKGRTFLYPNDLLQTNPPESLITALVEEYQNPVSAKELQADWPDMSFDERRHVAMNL

Binder | EC50 (mbp-NP632 fusion protein) | EC50 [1]
B1 | 15.4 nM | 
B2 | 189 nM | 
B3 | 22.3 nM | 
B4 |  | 12.8 nM
B5 |  | 28.5 nM
B6 |  | 26.6 nM
